Data as given in publication PMC3037360.

Assays:
[1] = target: CFP-E2TM (CFP in fusion with the transmembrane domain of HCV E2, H strain) (hepatitis C virus (H strain)); experiment: FRET or BRET
[2] = target: CFP-p7 (Cerulean fluorescent protein fused to the N-terminus of HCV p7) (hepatitis C virus (strain not stated)) (UniProt P27958); experiment: FRET or BRET

Substance | mean lifetime of the donor protein [1] [ns] | mean lifetime of the donor protein [2] [ns]
YFP-E1TM (YFP in fusion with the transmembrane domain of HCV E1, H strain) (domain or fragment) | 2.35 | 
YFP-NS2 (Venus yellow fluorescent protein fused to the N-terminus of HCV NS2) (from UniProt P27958 810-1026) (natural protein) |  | 2.34
